Data: patent US10865391B2, “Glutamate dehydrogenase mutants and their application in preparation of L-phosphinothricin” (ZHEJIANG UNIVERSITY, priority 2018, dated 2020)

B1: PpGluDH-A167G: PpGluDH mutant, alanine 167 to glycine, SEQ ID NO. 1 (protein)
chain: MSTMIESVDNFLARLKQRDPGQPEFHQAVEEVLRTLWPFLEANPHYLQSGILERMVEPERAVLFRVSWVDDQGKVQVNRGYRIQMSSAIGPYKGGLRFHPSVNLSVLKFLAFEQVFKNSLTSLPMGGGKGGSDFDPKGKSDAEVMRFCQAFMSELYRHIGADCDVPGGDIGVGAREIGFMFGQYKRLANQFTSVLTGKGMTYGGSLIRPEATGYGCVYFAEEMLKRQDKRIDGRRVAVSGSGNVAQYAARKVMDLGGKVISLSDSEGTLYAEAGLTDAQWDALMELKNVKRGRISELAGQFGLEFRKGQTPWSLPCDIALPCATQNELGAEDARTLLRNGCICVAEGANMPTTLEAVDIFLDAGILYAPGKASNAGGVAVSGLEMSQNAMRLLWTAGEVDSKLHNIMQSIHHACVHYGEEADGRINYVKGANIAGFVKVADAMLAQGVV
modifications: Pseudomonas putida glutamate dehydrogenase mutant
B2: PpGluDH-V378A: PpGluDH mutant, valine 378 to alanine, SEQ ID NO. 2 (protein)
chain: MSTMIESVDNFLARLKQRDPGQPEFHQAVEEVLRTLWPFLEANPHYLQSGILERMVEPERAVLFRVSWVDDQGKVQVNRGYRIQMSSAIGPYKGGLRFHPSVNLSVLKFLAFEQVFKNSLTSLPMGGGKGGSDFDPKGKSDAEVMRFCQAFMSELYRHIGADCDVPAGDIGVGAREIGFMFGQYKRLANQFTSVLTGKGMTYGGSLIRPEATGYGCVYFAEEMLKRQDKRIDGRRVAVSGSGNVAQYAARKVMDLGGKVISLSDSEGTLYAEAGLTDAQWDALMELKNVKRGRISELAGQFGLEFRKGQTPWSLPCDIALPCATQNELGAEDARTLLRNGCICVAEGANMPTTLEAVDIFLDAGILYAPGKASNAGGAAVSGLEMSQNAMRLLWTAGEVDSKLHNIMQSIHHACVHYGEEADGRINYVKGANIAGFVKVADAMLAQGVV
modifications: Pseudomonas putida glutamate dehydrogenase mutant

Experiments:
Format in all cases: biochemical
[1] = Standard enzyme activity measurement toward PPO, crude enzyme (per volume fermentation broth); conditions: toward PPO; for Enzyme activity (per volume fermentation broth): 100 mM substrate, 10 mM coenzyme, 500 mM NH4+, pH 7.5, 35° C., 10 min, crude enzyme; for Enzyme activity (per volume fermentation broth), times higher than that of wild type: versus wild type PpGluDH
Description: The preserved recombinant E. coli is streaked onto the plate for activation. Single colonies are picked and inoculated into 5 mL LB liquid medium containing 50 μg/mL kanamycin and cultured at 37° C. for 12 h. The culture is transferred to 50 mL fresh LB liquid medium containing 50 μg/mL kanamycin at a 2% inoculum, and then incubated at 37° C. until the OD600 reaches 0.6; after that, add IPTG to a final concentration of 0.5 mM, and then proceed with induction culture under the temperature of 18° C. for 16 h.
After the cultivation, the culture is centrifuged at 10000 rpm for 10 min; discard supernatant, and collect cells. The harvested cells are washed for 2 times using pH 7.5 50 mM phosphate buffer. After that, the cells are re-suspend into the pH 7.5 phosphate buffer and disrupted ultrasonically (400W for 30 times, Ultrasonic time is 3 s, and the interval is 7 s). The cell disrupted solution is centrifuged at 12000 g for 5 min at 4° C. to remove the precipitate, and the supernatant obtained is the crude enzyme containing recombinant glutamate dehydrogenase
(§1) The standard enzyme activity measurement system: Appropriate amount of enzyme, 100 mM substrate, 10 mM coenzyme (NADH or NADPH), 500 mM NH4^+ ((NH4)2SO4); total system volume is up to 400 μL; reaction medium is pH 7.5 phosphate buffer. 35° C. reaction for 10 min; after that, add 40 uL 5 M NaOH to terminate reaction.
(§2) Definition of enzyme activity unit: The quantity of enzyme as required by generation of 1 μmol L-phosphinothricin per minute under standard reaction conditions.
Proceed with induction culture of constructed mutants, and prepare crude enzyme solution.

[2] = Specific activity of pure enzyme toward PPO; conditions: for Specific activity of pure enzyme: purified protein; for Specific activity, times higher than that of wild type: versus wild type PpGluDH
Description: The recombinant E. coli carrying glutamate dehydrogenase gene used in the present invention is constructed and kept by our laboratory. The vector used is pET-28a(+), and the host used is E. coli BL21(DE3). NI-NTA resin (HisPur™ Ni-NTA Resin) used for protein purification is purchased from Thermo Scientific™; protein purification is carried out in reference to specifications.
as §1, §2
Meanwhile, specific activity of pure enzyme obtained through purification has also been measured. As measured, specific activity of pure protein of wild type PpGluDH is 0.31 U/mg; specific activity of PpGluDH-A167G is 38.13 U/mg, which is 123 times higher than that of wild type; specific activity of PpGluDH-V378A is 35.96 U/mg, which is 116 times higher than that of wild type.

[3] = Preparation of L-phosphinothricin by coupling glutamate dehydrogenase with glucose dehydrogenase; conditions: 500 mM PPO, NADP+, GluDH cells 1.0 g/L, 35° C., pH 7.5, 6 h
Description: The reaction process is monitored by measuring the concentration of substrate in the reaction solution applying high-performance liquid chromatography (HPLC). HPLC analysis method is stated as follows: column model: Pntulips® QS-C18, 5 μm, 4.6 mm×250 mm. Mobile phase: 50 mM (NH4)2HPO4, added 1% of 10% tetrabutyl ammonium hydroxide, adjusted to pH 3.6 with 50% phosphoric acid(mass fraction), added 8% acetonitrile. Detective wave length is 205 nm; flow rate is 1.0 mL/min. Column temperature is 40° C.
The enantiomeric excess and concentration of product are determined through pre-column derivatization high-performance liquid chromatography; the specific analysis method is stated as follows:
(1) HPLC condition: column model: Pntulips® QS-C18, 5 μm, 4.6 mm×250 mm. Mobile phase: 50 mM Sodium acetate: Acetonitrile=8: 0.5 (v/v). Detective wave length: 338 nm. Flow rate: 0.85 mL/min. Column temperature: 30° C.
(2) Derivatization reagent: Weigh 0.03 g phthalaldehyde and 0.1 g N-acetyl-L-cysteine, and use 400 uL ethanol for solubilization; after that, add 4 mL 0.2 mol/L borate buffer (pH 9.8) and shake for dissolution prior to storage in the fridge under the temperature of 4° C. (no more than 4 days).
(3) Derivatization reaction and analysis: Add 150 μL derivatization reagent into 100 μL sample, mix and incubate at 25° C. for 5 min, and then inject 20 μL for analysis.
Culture recombinant E. coli expressing glutamate dehydrogenase (PpGluDH) and glucose dehydrogenase (BsGDH-2M, SEQ ID NO. 21) with method in Step 3 of Embodiment 1; proceed with centrifugal collection of cells and ultrasonic cell disruption to prepare crude enzyme solution.
(§3) The final volume of the reaction is 30 mL; each sample contains 500 mM substrate PPO, 600 mM glucose, 250 mM (NH4)2SO4 and 0.5 mM NADP^+. Concentration of glutamate dehydrogenase cells (dry weight) is 1.0 g/L; concentration of glucose dehydrogenase cells (dry weight) is 1.25 g/L. Use water bath to control the reaction temperature at 35° C.; titrate ammonia to control pH at 7.5 during the reaction process. Use non-chiral HPLC to determine residual concentration of PPO after reaction for 6 h; meanwhile, use pre-column derivatization HPLC to determine the concentration and ee value of formed L-phosphinothricin.
as §3, with “0.5” for “1.0”
as §3, with “NAD^+.” for “NADP^+.”, “1.25” for “1.0”
The final volume of the reaction is 30 mL; each sample contains 500 mM substrate PPO, 600 mM glucose, 250 mM (NH4)2SO4 and 0.5 mM NAD^+. Concentration of glutamate dehydrogenase cells (dry weight) is 1.25 g/L; concentration of glucose dehydrogenase cells (dry weight) is 1.25 g/L. Use water bath to control the reaction temperature at 35° C.; titrate ammonia to control pH at 7.5 during the reaction process. […]

Molecule | Enzyme activity (per volume fermentation broth) [1] | Enzyme activity (per volume fermentation broth), times higher than that of wild type [1] | Specific activity of pure enzyme [2] | Specific activity, times higher than that of wild type [2] | concentration of formed L-phosphinothricin [3] | residual PPO [3] | substrate conversion [3]
B1 | 14.85 U/mL | 135 times | 38.13 U/mg | 123 times | 83.7 g/L | 0.9 mM | 99.8%
B2 | 13.3 U/mL | 121 times | 35.96 U/mg | 116 times | 81.9 g/L | 1.2 mM | 99.8%
